What was measured:
[1] = system: mice; experiment: Intestinal insulin delivery, blood glucose; format: in vivo
Method: Following ten hours of fasting, mice were orally gavaged with PBS (for control) or nanoparticle suspensions (100 mg/kg unless otherwise specified). Two hours later, their initial blood sugar was measured, and the animals were placed under anesthesia. Their intestines were surgically exposed, and insulin was injected at the predetermined dose (1 unit per kg body weight unless otherwise specified) into the duodenum. The mice were closed and secured with tissue adhesive, then kept under anesthesia as their blood sugar levels were monitored each hour for five hours. […] To determine specific insulin concentrations, blood samples were collected and separated via centrifugation. The serum was subjected to ELISA analysis for human insulin (LifeTechnologies®, Carlsbad, CA) per the instructions of the kit manufacturer.

[2] = Protocol: Following ten hours of fasting, mice were orally gavaged with PBS (for control) or nanoparticle suspensions (100 mg/kg unless otherwise specified). Two hours later, their initial blood sugar was measured, and the animals were placed under anesthesia. Their intestines were surgically exposed, and insulin was injected at the predetermined dose (1 unit per kg body weight unless otherwise specified) into the duodenum. The mice were closed and secured with tissue adhesive, then kept under anesthesia as their blood sugar levels were monitored each hour for five hours. For comparison to the current standard of insulin delivery, subcutaneous injections were given to additional mice, into the scruff on their necks. To determine specific insulin concentrations, blood samples were collected and separated via centrifugation. The serum was subjected to ELISA analysis for human insulin (LifeTechnologies®, Carlsbad, CA) per the instructions of the kit manufacturer.

Substance: insulin
- blood glucose response ([1]; 1 U/kg subcutaneous): pronounced, but brief response
- blood glucose, response to insulin dose ([1]; increasing intestinal insulin dose, constant particle administration of 100 mg/kg): increased magnitude and duration of hypoglycemia
- blood insulin concentration ([2]; intestinal insulin along with nanoparticles): slight elevations in blood insulin that persisted for at least four hours
- return of blood insulin to normal levels ([2]; subcutaneous injection): shortly after two hours
- time of spike in blood insulin concentration ([2]; subcutaneous injection): ≤ 30 min

Reference: US20250144035A1, “Method of Increasing Epithelial Permeability Using Nanoparticles” (Carnegie Mellon University, priority 2017, published 2025)
